Experimental data taken from patent US20170320947A1 (published 2017).

What was measured:
[1] = molecular target: Human PSMA; assay: BLI (Octet)
[2] = molecular target: T1, Cyno PSMA; assay: BLI (Octet)
T1 chain: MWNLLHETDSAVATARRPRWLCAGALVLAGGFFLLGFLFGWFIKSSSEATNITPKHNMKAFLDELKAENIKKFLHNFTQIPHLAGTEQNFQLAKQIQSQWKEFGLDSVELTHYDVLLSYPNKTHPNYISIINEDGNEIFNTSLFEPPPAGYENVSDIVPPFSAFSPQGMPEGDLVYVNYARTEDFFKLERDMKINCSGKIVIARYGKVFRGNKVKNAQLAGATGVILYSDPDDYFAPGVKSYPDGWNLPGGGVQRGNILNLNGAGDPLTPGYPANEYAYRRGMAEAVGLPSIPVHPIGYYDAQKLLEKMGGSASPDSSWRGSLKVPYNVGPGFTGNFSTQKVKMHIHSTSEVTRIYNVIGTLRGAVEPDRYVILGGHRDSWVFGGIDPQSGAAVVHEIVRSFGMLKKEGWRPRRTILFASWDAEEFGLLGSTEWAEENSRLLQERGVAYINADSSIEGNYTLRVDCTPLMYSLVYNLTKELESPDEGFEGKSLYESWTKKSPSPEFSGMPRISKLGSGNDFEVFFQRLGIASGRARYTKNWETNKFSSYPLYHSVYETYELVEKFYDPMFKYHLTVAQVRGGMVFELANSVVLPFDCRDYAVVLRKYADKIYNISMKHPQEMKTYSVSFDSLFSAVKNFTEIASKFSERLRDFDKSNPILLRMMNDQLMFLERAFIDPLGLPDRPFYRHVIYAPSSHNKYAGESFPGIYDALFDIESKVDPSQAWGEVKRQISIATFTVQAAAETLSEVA

Kd [1]: 0.4 nM | Kd [2]: 0.2 nM
B1: XENP14484 (bispecific antibody)
heavy: EVQLVQSGAEVKKPGASVKVSCKTSGYTFTEYTIHWVRQAPGQSLEWMGNINPNNGGTTYNQKFQGRVTITVDKSTSTAYMELSSLRSEDTAVYYCAAGWNFDYWGQGTLVTVSSASTKGPSVFPLAPSSKSTSGGTAALGCLVKDYFPEPVTVSWNSGALTSGVHTFPAVLQSSGLYSLSSVVTVPSSSLGTQTYICNVNHKPSDTKVDKKVEPKSCDKTHTCPPCPAPPVAGPSVFLFPPKPKDTLMISRTPEVTCVVVDVKHEDPEVKFNWYVDGVEVHNAKTKPREEEYNSTYRVVSVLTVLHQDWLNGKEYKCKVSNKALPAPIEKTISKAKGQPREPQVYTLPPSREEMTKNQVSLTCDVSGFYPSDIAVEWESDGQPENNYKTTPPVLDSDGSFFLYSKLTVDKSRWEQGDVFSCSVMHEALHNHYTQKSLSLSPGK
scFv-Fc: not shown
light: DIVMTQSPDSLAVSLGERATLSCRASQDVGTAVDWYQQKPDQSPKLLIYWASTRHTGVPDRFTGSGSGTDFTLTISSLQAEDVAVYFCQQYNSYPLTFGAGTKVEIKRTVAAPSVFIFPPSDEQLKSGTASVVCLLNNFYPREAKVQWKVDNALQSGNSQESVTEQDSKDSTYSLSSTLTLSKADYEKHKVYACEVTHQGLSSPVTKSFNRGEC
